Experimental data from paper PMC7921663.

Tests used:
Conditions in all cases: FA: 50 mM NaCl, 50 mM Tris-HCl pH 8.0, 5 mM DTT, 5 mM MgCl2, room temp, 30 nM FAM substrate, EMSA: 10 mM NaCl, 0.2 mM EDTA, 5 mM b-mercaptoethanol, 0.1% NP-40 …
PARP1 (human) [1] = assay: fluorescence anisotropy
PARP2 (mouse) [2] = assay: fluorescence anisotropy
PARP1 (human) [3] = assay: EMSA
PARP2 (mouse) [4] = assay: EMSA
[5] = single-nt gap with 5'-dRP at the U of primer S1 (UDG + APE1)
[6] = AP site at the U of primer S1 (UDG-generated)
[7] = single-nt gap with 5'-dRP at the U of primer S3 (UDG + APE1), outward-oriented
[8] = single-nt gap with 5'-dRP at the U of primer S1 (UDG + APE1), midward-oriented
[9] = AP site at the U of primer S3 (UDG-generated)
[10] = AP site at the U of primer S3 (UDG-generated), outward-oriented
[11] = single-nt gap with 5'-dRP at the U of primer S3 (UDG + APE1)
[12] = AP site at the U of primer S1 (UDG-generated), midward-oriented

gap mid-DNA
Kd (PARP1 (human) [1]; [5]): 25 nM
Kd (PARP2 (mouse) [2]; [5]): 145 nM

native out-DNA
Kd (PARP1 (human) [1]): 14 nM
Kd (PARP2 (mouse) [2]): 839 nM

AP mid-DNA
Kd (PARP1 (human) [1]; [6]): 23 nM
Kd (PARP2 (mouse) [2]; [6]): 690 nM

native mid-NCP
Kd (PARP1 (human) [1]): 11 nM
Kd (PARP2 (mouse) [2]): 151 nM

gap out-NCP
Kd (PARP1 (human) [1]; [7]): 10 nM
Kd (PARP2 (mouse) [2]; [7]): 14 nM
Kd (PARP1 (human) [3]; [7]): 38 nM
Kd (PARP2 (mouse) [4]; [7]): 57 nM

gap mid-NCP
Kd (PARP1 (human) [1]; [8]): 14 nM
Kd (PARP2 (mouse) [2]; [8]): 128 nM

AP out-DNA
Kd (PARP1 (human) [1]; [9]): 23 nM
Kd (PARP2 (mouse) [2]; [9]): 811 nM

native out-NCP
Kd (PARP1 (human) [1]): 14 nM
Kd (PARP2 (mouse) [2]): 156 nM
Kd (PARP1 (human) [3]): 65 nM
Kd (PARP2 (mouse) [4]): 192 nM

AP out-NCP
Kd (PARP1 (human) [1]; [10]): 7 nM
Kd (PARP2 (mouse) [2]; [10]): 160 nM
Kd (PARP1 (human) [3]; [10]): 61 nM
Kd (PARP2 (mouse) [4]; [10]): 130 nM

native mid-DNA
Kd (PARP1 (human) [1]): 14 nM
Kd (PARP2 (mouse) [2]): 608 nM

gap out-DNA
Kd (PARP1 (human) [1]; [11]): 29 nM
Kd (PARP2 (mouse) [2]; [11]): 58 nM

AP mid-NCP
Kd (PARP1 (human) [1]; [12]): 12 nM
Kd (PARP2 (mouse) [2]; [12]): 162 nM
